{"source": "patent US20220340678A1", "key": {"[1]": {"molecular_target": "IL-12 receptor on HEK-BLUE IL-12 cells", "test": "cell-based or functional assay"}, "[2]": {"molecular_target": "p40 without a fusion partner (human) (UniProt P29460)", "test": "cell-based or functional assay"}, "[3]": {"molecular_target": "p40-Fab fusion protein (human) (UniProt P29460)", "sequence (P29460 23-328)": "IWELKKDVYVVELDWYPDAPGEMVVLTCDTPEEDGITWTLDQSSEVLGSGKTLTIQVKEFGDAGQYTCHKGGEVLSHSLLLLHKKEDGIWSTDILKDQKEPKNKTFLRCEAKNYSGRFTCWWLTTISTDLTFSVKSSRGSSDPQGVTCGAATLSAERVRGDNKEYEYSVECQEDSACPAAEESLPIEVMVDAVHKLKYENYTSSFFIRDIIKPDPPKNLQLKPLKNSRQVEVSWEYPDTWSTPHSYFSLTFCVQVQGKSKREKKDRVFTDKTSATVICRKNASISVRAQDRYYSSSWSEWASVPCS", "test": "cell-based or functional assay"}, "[4]": {"molecular_target": "p40-IgG (anti-uPAR M37 IgG) (human) (UniProt P29460)", "sequence (P29460 23-328)": "as above", "test": "cell-based or functional assay"}, "[5]": {"molecular_target": "GM-CSF receptor on U937 cells (human)", "test": "cell-based or functional assay"}, "[6]": {"molecular_target": "p35-MSA fusion protein (human; mouse) (UniProt P29459)", "sequence (P29459 23-219)": "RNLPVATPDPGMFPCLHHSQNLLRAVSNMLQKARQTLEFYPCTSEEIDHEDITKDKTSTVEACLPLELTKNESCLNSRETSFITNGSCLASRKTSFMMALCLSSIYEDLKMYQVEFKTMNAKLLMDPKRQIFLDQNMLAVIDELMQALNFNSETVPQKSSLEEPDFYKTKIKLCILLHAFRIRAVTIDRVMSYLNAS", "test": "BLI (Octet), biotinylated p35-MSA against p40-fab, 0 hr at 37 C"}, "[7]": {"molecular_target": "p35-MSA fusion protein (human; mouse) (UniProt P29459)", "test": "BLI (Octet), biotinylated p35-MSA against p40-fab, 4 hr at 37 C"}, "[8]": {"molecular_target": "p35-MSA fusion protein (human; mouse) (UniProt P29459)", "test": "BLI (Octet), biotinylated p35-MSA against p40-fab, 24 hr at 37 C"}, "[9]": {"molecular_target": "p35-MSA fusion protein (human; mouse) (UniProt P29459)", "test": "BLI (Octet), biotinylated p35-MSA against p40-fab, 47 hr at 37 C"}}, "data": [{"substance": "wild-type human IL-12 (R&D Systems, Cat. No. 219-IL-005/CF) (from UniProt P29459 23-219; P29460 23-328) (ligand)", "values": [{"measurement": "potency, SEAP reporter in HEK-BLUE IL-12 cells", "setting": "[1]", "result": 0.018, "unit": "nM"}]}, {"substance": "p35-MSA fusion protein (from UniProt P29459 23-219)", "values": [{"measurement": "EC50, % pStat4 formation in CD4+ T cells", "setting": "[2]", "result": 0.842, "unit": "nM"}, {"measurement": "EC50, % pStat4 formation in CD8+ T cells", "setting": "[2]", "result": 1.06, "unit": "nM"}, {"measurement": "EC50, IFN gamma production by T cells", "setting": "[2]", "result": 0.657, "unit": "nM"}, {"measurement": "EC50 fold change relative to scIL-12, IFN gamma production", "setting": "[2]", "result": 128, "unit": "fold"}, {"measurement": "EC50 fold change relative to scIL-12, pStat4 in CD4+ T cells", "setting": "[2]", "result": 16.4, "unit": "fold"}, {"measurement": "EC50 fold change relative to scIL-12, pStat4 in CD8+ T cells", "setting": "[2]", "result": 14.2, "unit": "fold"}, {"measurement": "EC50, % pStat4 formation in CD4+ T cells", "setting": "[3]", "result": 0.708, "unit": "nM"}, {"measurement": "EC50, % pStat4 formation in CD8+ T cells", "setting": "[3]", "result": 0.912, "unit": "nM"}, {"measurement": "EC50, IFN gamma production by T cells", "setting": "[3]", "result": 0.559, "unit": "nM"}, {"measurement": "EC50 fold change relative to scIL-12, IFN gamma production", "setting": "[3]", "result": 109, "unit": "fold"}, {"measurement": "EC50 fold change relative to scIL-12, pStat4 in CD4+ T cells", "setting": "[3]", "result": 13.8, "unit": "fold"}, {"measurement": "EC50 fold change relative to scIL-12, pStat4 in CD8+ T cells", "setting": "[3]", "result": 12.2, "unit": "fold"}, {"measurement": "EC50, % pStat4 formation in CD4+ T cells", "setting": "[4]", "result": 0.173, "unit": "nM"}, {"measurement": "EC50, % pStat4 formation in CD8+ T cells", "setting": "[4]", "result": 0.571, "unit": "nM"}, {"measurement": "EC50, IFN gamma production by T cells", "setting": "[4]", "result": 0.403, "unit": "nM"}, {"measurement": "EC50 fold change relative to scIL-12, IFN gamma production", "setting": "[4]", "result": 78.2, "unit": "fold"}, {"measurement": "EC50 fold change relative to scIL-12, pStat4 in CD4+ T cells", "setting": "[4]", "result": 3.37, "unit": "fold"}, {"measurement": "EC50 fold change relative to scIL-12, pStat4 in CD8+ T cells", "setting": "[4]", "result": 7.66, "unit": "fold"}]}, {"substance": "recombinant human GM-CSF (R&D Systems, cat # 215-GM-050/CF) (from UniProt P04141 18-144) (ligand)", "values": [{"measurement": "pSTAT5 EC50, U937 cells, no competitor", "setting": "[5]", "result": 18.6, "unit": "pM"}]}, {"substance": "p40-Fab fusion protein (from UniProt P29460 23-328)", "values": [{"measurement": "Kd", "setting": "[6]", "result": 7.82, "unit": "nM"}, {"measurement": "koff", "setting": "[6]", "result": 0.000462, "unit": "s⁻¹"}, {"measurement": "kon", "setting": "[6]", "result": 59100, "unit": "M⁻¹ s⁻¹"}, {"measurement": "Kd", "setting": "[7]", "result": 7.54, "unit": "nM"}, {"measurement": "koff", "setting": "[7]", "result": 0.000385, "unit": "s⁻¹"}, {"measurement": "kon", "setting": "[7]", "result": 51100, "unit": "M⁻¹ s⁻¹"}, {"measurement": "Kd", "setting": "[8]", "result": 11.1, "unit": "nM"}, {"measurement": "koff", "setting": "[8]", "result": 0.000422, "unit": "s⁻¹"}, {"measurement": "kon", "setting": "[8]", "result": 38100, "unit": "M⁻¹ s⁻¹"}, {"measurement": "Kd", "setting": "[9]", "result": 10.5, "unit": "nM"}, {"measurement": "koff", "setting": "[9]", "result": 0.000376, "unit": "s⁻¹"}, {"measurement": "kon", "setting": "[9]", "result": 35800, "unit": "M⁻¹ s⁻¹"}]}]}
